Here are results for eight molecules from patent US20220112296A1 (Chugai, published 2022).

B1: GPC3 ERY22-B (bispecific antibody, human IgG1, kappa, L234A L235A, N297A)
heavy 1: DIVMTQSPLSLPVTPGEPASISCRSSQSLVHSNRNTYLHWYQQKPGQAPRLLIYKVSNRFSGVPDRFSGSGSGTDFTLKISRVEAEDVGVYYCSQNTHVPPTFGQGTKLEIKSSASTKGPSVFPLAPSSKSTSGGTAALGCLVKDYFPEPVTVSWNSGALTSGVHTFPAVLQSSGLYSLSSVVTVPSSSLGTQTYICNVNHKPSNTKVDKKVEPKSCDKTHTCPPCPAPEAAGGPSVFLFPPKPKDTLMISRTPEVTCVVVDVSHEDPEVKFNWYVDGVEVHNAKTKPREEQYASTYRVVSVLTVLHQDWLNGKEYKCKVSNKALPAPIEKTISKAKGQPREPQVCTLPPSRDELTKNQVSLWCLVKGFYPSDIAVEWESNGQPENNYKTTPPVLDSDGSFFLYSKLTVDKSRWQQGNVFSCSVMHEALHNHYTQKSLSLSPHHHHHHHH
light 1: QVQLVQSGAEVKKPGASVKVSCKASGYTFTDYEMHWIRQPPGQGLEWIGAIDPKTGDTAYSQKFKGRVTLTADKSTSTAYMELSSLTSEDTAVYYCTRFYSYTYWGQGTLVTVSSASVAAPSVFIFPPSDEQLKSGTASVVCLLNNFYPREAKVQWKVDNALQSGNSQESVTEQDSKDSTYSLSSTLTLSKADYEKHKVYACEVTHQGLSSPVTKSFNRGEC
heavy 2: QVQLQQWGAGLLKPSETLSLTCAVYGGSFSGYYWSWIRQSPEKGLEWIGEINHGGYVTYNPSLESRVTISVDTSKNQFSLKLSSVTAADTAVYYCARDYGPGNYDWYFDLWGRGTLVTVSSASTKGPSVFPLAPSSKSTSGGTAALGCLVKDYFPEPVTVSWNSGALTSGVHTFPAVLQSSGLYSLSSVVTVPSSSLGTQTYICNVNHKPSNTKVDKKVEPKSCDKTHTCPPCPAPEAAGGPSVFLFPPKPKDTLMISRTPEVTCVVVDVSHEDPEVKFNWYVDGVEVHNAKTKPREEQYASTYRVVSVLTVLHQDWLNGKEYKCKVSNKALPAPIEKTISKAKGQPREPQVYTLPPSRCELTKNQVSLSCAVKGFYPSDIAVEWESNGQPENNYKTTPPVLDSDGSFFLVSKLTVDKSRWQQGNVFSCSVMHEALHNHYTQKSLSLSP
light 2: not shown
B2: GPC3 ERY22-dBBDu_186/L098 (bispecific antibody, human IgG1, kappa, L234A L235A, N297A)
heavy 1: B1 heavy 1
light 1: B1 light 1
heavy 2: QVQLVESGGGLVQPGRSLRLSCAASGFTFSNAWMHWVRQAPGKGLEWVAQIKDRSNQYATYYAPSVKGRFTISRDDSKNSIYLQMNSLKTEDTAVYYCHYVHYAQASTVLPAFGVDAWGQGTTVTVSSASTKGPSVFPLAPSSKSTSGGTAALGCLVKDYFPEPVTVSWNSGALTSGVHTFPAVLQSSGLYSLSSVVTVPSSSLGTQTYICNVNHKPSNTKVDKKVEPKSCDKTHTCPPCPAPEAAGGPSVFLFPPKPKDTLMISRTPEVTCVVVDVSHEDPEVKFNWYVDGVEVHNAKTKPREEQYASTYRVVSVLTVLHQDWLNGKEYKCKVSNKALPAPIEKTISKAKGQPREPQVYTLPPSRCELTKNQVSLSCAVKGFYPSDIAVEWESNGQPENNYKTTPPVLDSDGSFFLVSKLTVDKSRWQQGNVFSCSVMHEALHNHYTQKSLSLSPDYKDDDDK
light 2: DIVMTQSPLSLPVTPGEPASISCAASEELVHINRYIFLHWYQQKPGQAPRLLIYKVSNRFIGVPDRFSGSGSGTDFTLKISRVEAEDVGVYYCAQGSQVPFTFGQGTKLEIKRTVAAPSVFIFPPSDEQLKSGTASVVCLLNNFYPREAKVQWKVDNALQSGNSQESVTEQDSKDSTYSLSSTLTLSKADYEKHKVYACEVTHQGLSSPVTKSFNRGEC
B3: GPC3 ERY22-dBBDu_189/L116 (bispecific antibody, human IgG1, kappa, L234A L235A, N297A)
heavy 1: B1 heavy 1
light 1: B1 light 1
heavy 2: B2 heavy 2 with V48I, T108S, V109L, A112S
light 2: B2 light 2 with A24S, A25S, E27Q, I32A, Y35Q, F37Y, S57A, I61P, S97T
B4: GPC3 ERY22-dBBDu_186/L106 (bispecific antibody, human IgG1, kappa, L234A L235A, N297A)
heavy 1: B1 heavy 1
light 1: B1 light 1
heavy 2: B2 heavy 2
light 2: B2 light 2 with A24S, A25T, V30L, Y35F, S57A, I61M
B5: GPC3 ERY22-dBBDu_186/L096 (bispecific antibody, human IgG1, kappa, L234A L235A, N297A)
heavy 1: B1 heavy 1
light 1: B1 light 1
heavy 2: B2 heavy 2
light 2: B2 light 2 with A24R, A25T, E27Q, S57Y, I61Q, S97T, Q98S, F101Y
B6: GPC3 ERY22-dBBDu_183/L063 (bispecific antibody, human IgG1, kappa, L234A L235A, N297A)
heavy 1: B1 heavy 1
light 1: B1 light 1
heavy 2: B2 heavy 2 with R54K, S55G, Q57A, T60A, Q105S
light 2: B2 light 2 with A24R, A25S, E27Q, I32T, Y35H, I36T, F37Y, I61P, S97T
B7: GPC3 ERY22-dBBDu_167/L091 (bispecific antibody, human IgG1, kappa, L234A L235A, N297A)
heavy 1: B1 heavy 1
light 1: B1 light 1
heavy 2: B2 heavy 2 with R54K, S55G, Q57L, T60A, Q105S, S107G, T108G, V109G, A112G
light 2: DIVMTQSPLSLPVTPGEPASISCSASESLLHNNRHTYLHWYQQKPGQAPRLLIYRVSNRFNGVPDRFSGSGSGTDFTLKISRVEAEDVGVYYCGQGTQVPFTFGQGTKLEIKRTVAAPSVFIFPPSDEQLKSGTASVVCLLNNFYPREAKVQWKVDNALQSGNSQESVTEQDSKDSTYSLSSTLTLSKADYEKHKVYACEVTHQGLSSPVTKSFNRGEC
B8: GPC3 ERY22-dBBDu_183/L072 (bispecific antibody, human IgG1, kappa, L234A L235A, N297A)
heavy 1: B1 heavy 1
light 1: B1 light 1
heavy 2: B2 heavy 2 with R54K, S55G, Q57A, T60A, Q105S
light 2: B2 light 2 with A24Q, E27Q, I32M, Y35N, I36T, F37Y, I61P, S97T, Q98S

Numbering of substitutions follows the chain as printed.

Chain of human CD137 (4-1BB) on cells (Q07011 24-255): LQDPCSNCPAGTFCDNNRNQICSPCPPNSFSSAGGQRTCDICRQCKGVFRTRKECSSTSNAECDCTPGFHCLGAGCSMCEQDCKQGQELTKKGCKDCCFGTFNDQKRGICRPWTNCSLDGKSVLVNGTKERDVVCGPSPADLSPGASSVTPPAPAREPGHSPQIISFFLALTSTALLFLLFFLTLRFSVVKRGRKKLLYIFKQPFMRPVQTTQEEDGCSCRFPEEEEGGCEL

The test has as its target human CD137 (4-1BB) on cells (human, UniProt Q07011 24-255). Nature of the test: cell-based or functional assay.
With B1, the “Agonistic activity compared to B, 6 ug/mL” value was determined as 100%; the “Agonistic activity compared to B, 30 ug/mL” value stood at 100%; the “Agonistic activity compared to Ctrl, 6 ug/mL” value was determined as 347%; the “Agonistic activity compared to Ctrl, 30 ug/mL” value was 380%. The “hIL-6 (pg/mL), 6 ug/mL antibody” value is 4520 pg/mL and the “hIL-6 (pg/mL), 30 ug/mL antibody” value was 4340 pg/mL.
Take B2: the “Agonistic activity compared to B, 6 ug/mL” value worked out at 13.9%; the “Agonistic activity compared to B, 30 ug/mL” value came to 24.6%; the “Agonistic activity compared to Ctrl, 6 ug/mL” value was found to be 48.3%; the “Agonistic activity compared to Ctrl, 30 ug/mL” value stood at 93.5%. Moreover, the “hIL-6 (pg/mL), 6 ug/mL antibody” value worked out at 1500 pg/mL and the “hIL-6 (pg/mL), 30 ug/mL antibody” value came out at 1750 pg/mL.
For B3, the “Agonistic activity compared to B, 6 ug/mL” value was 8.28%; the “Agonistic activity compared to B, 30 ug/mL” value worked out at 19.2%; the “Agonistic activity compared to Ctrl, 6 ug/mL” value stood at 28.7%; the “Agonistic activity compared to Ctrl, 30 ug/mL” value came out at 72.9%. In addition, the “hIL-6 (pg/mL), 6 ug/mL antibody” value was found to be 1300 pg/mL and the “hIL-6 (pg/mL), 30 ug/mL antibody” value amounted to 1570 pg/mL.
Regarding B4, the “Agonistic activity compared to B, 6 ug/mL” value came out at 13.2%; the “Agonistic activity compared to B, 30 ug/mL” value came to 19.4%; the “Agonistic activity compared to Ctrl, 6 ug/mL” value amounted to 45.8%; the “Agonistic activity compared to Ctrl, 30 ug/mL” value came to 73.6%. Moreover, the “hIL-6 (pg/mL), 6 ug/mL antibody” value was found to be 1480 pg/mL and the “hIL-6 (pg/mL), 30 ug/mL antibody” value is 1570 pg/mL.
Turning to B5, the “Agonistic activity compared to B, 6 ug/mL” value was 19%; the “Agonistic activity compared to B, 30 ug/mL” value was 24.2%; the “Agonistic activity compared to Ctrl, 6 ug/mL” value was 66.1%; the “Agonistic activity compared to Ctrl, 30 ug/mL” value turned out to be 91.7%. Further, the “hIL-6 (pg/mL), 6 ug/mL antibody” value amounted to 1680 pg/mL and the “hIL-6 (pg/mL), 30 ug/mL antibody” value was 1740 pg/mL.
As for B6, the “Agonistic activity compared to B, 6 ug/mL” value was -1.27%; the “Agonistic activity compared to B, 30 ug/mL” value worked out at 6.51%; the “Agonistic activity compared to Ctrl, 6 ug/mL” value was -4.41%; the “Agonistic activity compared to Ctrl, 30 ug/mL” value came out at 24.7%. The “hIL-6 (pg/mL), 6 ug/mL antibody” value was found to be 968 pg/mL and the “hIL-6 (pg/mL), 30 ug/mL antibody” value came out at 1130 pg/mL.
As to B7, the “Agonistic activity compared to B, 6 ug/mL” value is -2.21%; the “Agonistic activity compared to B, 30 ug/mL” value was determined as 1.1%; the “Agonistic activity compared to Ctrl, 6 ug/mL” value is -7.68%; the “Agonistic activity compared to Ctrl, 30 ug/mL” value worked out at 4.19%. Also, the “hIL-6 (pg/mL), 6 ug/mL antibody” value turned out to be 935 pg/mL and the “hIL-6 (pg/mL), 30 ug/mL antibody” value came out at 944 pg/mL.
Consider B8, for which the “Agonistic activity compared to B, 6 ug/mL” value is 3.21%; the “Agonistic activity compared to B, 30 ug/mL” value stood at 15.8%; the “Agonistic activity compared to Ctrl, 6 ug/mL” value was 11.1%; the “Agonistic activity compared to Ctrl, 30 ug/mL” value came to 59.8%. Besides, the “hIL-6 (pg/mL), 6 ug/mL antibody” value is 1130 pg/mL and the “hIL-6 (pg/mL), 30 ug/mL antibody” value came to 1450 pg/mL.
